Experimental data reported in patent US20240317847A1 (Bayer, published 2024).

Legend:
human IL-11 = target: T1, human IL-11 (human, UniProt P20809 22-199); test: cell-based or functional assay
T1 sequence: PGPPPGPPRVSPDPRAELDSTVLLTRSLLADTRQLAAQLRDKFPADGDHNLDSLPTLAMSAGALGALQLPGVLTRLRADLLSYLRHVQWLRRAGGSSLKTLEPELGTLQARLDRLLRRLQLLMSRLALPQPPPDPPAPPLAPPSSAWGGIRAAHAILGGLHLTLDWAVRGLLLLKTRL

murine IL-11 [1] = target: T2, murine IL-11 (mouse, UniProt P47873 22-199); test: cell-based or functional assay
T2 sequence: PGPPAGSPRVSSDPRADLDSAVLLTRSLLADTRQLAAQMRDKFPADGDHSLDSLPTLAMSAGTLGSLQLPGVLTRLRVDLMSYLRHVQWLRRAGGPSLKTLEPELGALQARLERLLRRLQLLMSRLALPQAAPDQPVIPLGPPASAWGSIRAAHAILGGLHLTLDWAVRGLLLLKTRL

murine IL-11 [2] = target: T2, murine IL-11; test: Di-complex ELISA, competitor canine IL11RA-Fc on coated IL-11;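 for Efficacy (%): signal drop relative to signal at lowest antibody concentration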
[3] = target: T3, human IL-11 (Invigate, e.g., lot #C121021-19) (human, UniProt P20809 22-199); test: SPR, Biacore 8K; antibody captured on anti-human IgG Fc chip, IL-11 analyte 0-50 nM, 1:1 fit
T3 construct: Bought protein; also called hIL-11; hIL11
T3 sequence: T1 sequence

[4] = target: T4, murine IL-11 (Invigate, e.g., lot #C210819-09) (mouse, UniProt P47873 22-199); test: as above
T4 construct: Bought protein; biotinylated where captured on streptavidin plates; also called mIL-11; mIL11
T4 sequence: T2 sequence

cynomolgus IL-11 = target: T5, cynomolgus IL-11 (cynomolgus, UniProt P20808 22-199); test: SPR (Biacore), 25 C, antibody captured via anti-Fc, IL-11 as analyte, determined in steady state; SPR at 25 C, determined in steady state
T5 construct: Invigate recombinant protein; also called cIL11; Macaca IL-11
T5 sequence: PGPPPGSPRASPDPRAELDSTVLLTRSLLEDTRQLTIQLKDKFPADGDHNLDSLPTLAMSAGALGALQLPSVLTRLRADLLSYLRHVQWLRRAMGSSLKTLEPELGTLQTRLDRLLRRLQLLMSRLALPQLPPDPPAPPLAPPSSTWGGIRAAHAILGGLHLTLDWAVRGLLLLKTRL
Protocol: To assess the binding kinetics and affinity of anti-IL-11 bispecific antibodies as well as their species cross-reactivity profile, binding assays were conducted using surface plasmon resonance (SPR). […] Antibodies were captured either via anti-human Fc IgGs (“Human antibody capture kit”, Order No. BR100839, Cytiva) or via anti-mouse Fc IgGs (“Mouse antibody capture kit, Order No. BR100383, Cytiva) covalently amine coupled to a Series S CM5 sensor chip (Cytiva) depending on the isotype. The amine coupling was carried out according to the manufacturer's instructions using 1-ethyl-3-(3-dimethylaminopropyl) carbodiimide hydrochloride (EDC), N-hydroxysuccinimide (NHS) and ethanolamine HCl, pH 8.5 (“Amine Coupling Kit” BR-1000-50, Cytiva.). Human, mouse, cynomolgus or rat IL-11 was used as analyte at several dilutions within the concentration range from 0.05-200 nM. For binding assays with only one concentration 200 nM IL-11 was used. The sensor surface was regenerated with glycine pH 1.7 after each antigen injection. Obtained sensorgrams were double referenced (subtraction of reference flow cell signal and buffer injection) and were fitted to a 1:1 Langmuir binding model to derive kinetic data using the Biacore T200 Evaluation software or the Biacore Insight software.
If no value is reported, there was either no binding or very low binding and multiphasic binding behavior.

B1: TPP-18068 (antibody, mouse IgG1)
heavy: EVQLLESGGGLVQPGGSLRLSCAASGFTFSSYGMHWVRQAPGKGLEWVSVISYDGSYKYYADSVKGRFTISRDNSKNTLYLQMNSLRAEDTAVYYCAAGVPDYWGQGTLVTVSSAKTTPPSVYPLAPGSAAQTNSMVTLGCLVKGYFPEPVTVTWNSGSLSSGVHTFPAVLQSDLYTLSSSVTVPSSTWPSETVTCNVAHPASSTKVDKKIVPRDCGCKPCICTVPEVSSVFIFPPKPKDVLTITLTPKVTCVVVDISKDDPEVQFSWFVDDVEVHTAQTQPREEQFNSTFRSVSELPIMHQDWLNGKEFKCRVNSAAFPAPIEKTISKTKGRPKAPQVYTIPPPKEQMAKDKVSLTCMITDFFPEDITVEWQWNGQPAENYKNTQPIMDTDGSYFVYSKLNVQKSNWEAGNTFTCSVLHEGLHNHHTEKSLSHSPGK
light: QSVLTQPPSASGTPGQRVTISCTGSSSNIGAGYDVHWYQQLPGTAPKLLIYSNNERPSGVPDRFSGSKSGTSASLAISGLRSEDEADYYCAAWDDSLNGPVFGGGTKLTVLGQPKSSPSVTLFPPSSEELETNKATLVCTITDFYPGVVTVDWKVDGTPVTQGMETTQPSKQSNNKYMASSYLTLTARAWERHSSYSCQVTHEGHTVEKSLSRADCS
notes: mIgG1, Lambda
Human IL-11
  RGA Efficacy (%): 60.3%
  RGA IC50: 6.7 nM
Murine IL-11 [1]
  RGA Efficacy (%): 93.1%
  RGA IC50: 1 nM
Murine IL-11 [2]
  Efficacy (%): 64.2%
  IC50: 2.9 nM

B2: TPP-18087 (antibody, mouse IgG1, V domains shown)
VH: EVQLLESGGGLVQPGGSLRLSCAASGFTFSHYDMNWLRQAPGKGLEWVGVISYDGSNKFYADFVKGRFTISRDNSKNTLYLQMNSLRAEDTAVYYCARTPGSHFDYWGQGTLVTVSS
VL: QSVLTQPPSASGTPGQRVTISCSGSSSNIGNNAVNWYQQLPGTAPKLLIYYDDLLPSGVPDRFSGSKSGTSASLAISGLRSEDEADYYCSAWDDSLNGVVFGGGTKLTVLG
notes: mIgG1, Lambda
[3]
  Kd: 5.2 nM
[4]
  Kd: 12 nM

B3: TPP-18087 (antibody, mouse IgG1, V domains shown)
VH: B2 VH
VL: B2 VL
notes: mIgG1, Lambda
Cynomolgus IL-11
  Kd: 56 nM
